Reference: US20240400654A1
Values joined by “and” are separate entries in the source; they are usually repeats but may differ in a detail not shown here. Equal values may be shown once.

How the values were obtained:
[1] = biological target: HRgpA-6H (Porphyromonas gingivalis) (UniProt P28784); assay: ELISA; non-related FASEBA supernatant on HRgpA-6H coat; secondary Anti-BSA (HRP)
[2] = biological target: HRgpA-6H (Porphyromonas gingivalis) (UniProt P28784); assay: ELISA; non-related FASEBA supernatant on HRgpA-6H coat; secondary goat anti-human IgG (H+L) HRP
[3] = biological target: HRgpA-6H (Porphyromonas gingivalis) (UniProt P28784); assay: ELISA; non-related FASEBA supernatant on HRgpA-6H coat; secondary goat anti-human IgG F(ab')2 HRP
[4] = biological target: HRgpA-6H (Porphyromonas gingivalis) (UniProt P28784); assay: ELISA; non-related FASEBA supernatant on HRgpA-6H coat; secondary mouse anti-human IgG F(ab')2 HRP
[5] = biological target: whole P. gingivalis cells (strain W83) (Porphyromonas gingivalis)
[6] = biological target: whole P. gingivalis cells (strain W83) (Porphyromonas gingivalis); assay: gold-labelled KB001, scanning electron microscopy, W83
[7] = biological target: HRgpA-6H (Porphyromonas gingivalis) (UniProt P28784); assay: SPR Biacore 8K, 25 C; table lists HRgpA-6H as ligand, antibody as analyte
[8] = biological target: HRgpA-6H (Porphyromonas gingivalis) (UniProt P28784); assay: SPR Biacore 8K, 25 C; HRGPA-6H immobilized on CM5, KB001-WT-Ab as analyte
[9] = biological target: HRgpA-6H (Porphyromonas gingivalis) (UniProt P28784); assay: ELISA, FASEBA screening, coated HRgpA-6H 0.0625 ug/ml
[10] = biological target: HRgpA-6H (Porphyromonas gingivalis) (UniProt P28784); assay: ELISA, FASEBA screening, coated HRgpA-6H; library clone found WT, OD over parental WT Fab OD

Work on “non-related FASEBA supernatant (NC) (Fab)” yielded an OD450 [1] of 1.09, an OD450 ([2]; coating antigen 1 µg/ml) of 1.15 and an OD450 ([2]; coating antigen 2 µg/ml) of 0.736. It also gave an OD450 [3] of 0.672, an OD450 ([4]; coating antigen 1 µg/ml) of 0.552 and an OD450 ([4]; coating antigen 2 µg/ml) of 0.288.

B1: KB001 (antibody, V domains shown)
VH: EVQLKQSGPGLVAPSQSLSITCTVSGFSLSIYSVHWVRQPPGKGLEWLGMIWGGGSSDYNSALKSRLSISKDNSKSQVFLKMNSLQTDDTAMYYCARNGNFYAMDYWGQGTSVTVSS
VL: QIVLTQSPAIMSASLGERVTMTCTASSSVSSSFLHWYQQKPGSSPQLWIYSTSNLASGVPARFSGSGSGTSYSLTISSMEAEDAATYYCHQYHHSPYIYTFGGGTKLEIKR
In the case of B1, the Kd [5] is reported as 11.4 nM, the Response [5] is reported as 0.297 and 0.216 and 0.186 and the koff [5] is reported as 0.000219 s⁻¹. For the same molecule, the kon [5] was 19200 M⁻¹ s⁻¹, the IgG molecules bound per bacterium (molecules per bacterium) [6] was 60 and 80 and the Kd [7] was 2.02 nM. The koff [7] was 8.62e-05 s⁻¹, the kon [7] was 42600 M⁻¹ s⁻¹ and the Kd [8] was 2.02 nM. The koff [8] was 8.62e-05 s⁻¹ and the kon [8] was 42600 M⁻¹ s⁻¹.

B2: KB001 parental mouse Fab FASEBA (WT) (Fab, V domains shown)
VH: EVQLKQSGPGLVAPSQSLSITCTVSGFSLSIYSVHWVRQPPGKGLEWLGMIWGGGSSDYNSALKSRLSISKDNSKSQVFLKMNSLQTDDTAMYYCARNGNFYAMDYWGQGTSVTVSS
VL: QIVLTQSPAIMSASLGERVTMTCTASSSVSSSFLHWYQQKPGSSPQLWIYSTSNLASGVPARFSGSGSGTSYSLTISSMEAEDAATYYCHQYHHSPYIYTFGGGTKLEIK
In the case of B2, the OD450 nm [9] is reported as 0.831 and the Ratio OD(Variant)/OD(WT) [10] is reported as 0.956.
